Experiment [1] addresses T1, recombinant human TfR (r human TfR: Sino Biological Inc.) (human, UniProt P02786 89-760).
T1 construct: Bought product; also called r human TfR-ECD (Histag); hTfR; not shown: histidine tag attached to the N-terminus
The experiment can be described thus: BLI (Octet RED96), His-tagged TfR ECD loaded on Ni-NTA sensor, antibody as analyte. As for the experimental part:
(§1) By measuring the variations of this shift between the interfering waves, determination of the number of the molecules bound to the layer of the biomolecules immobilized to the sensor tip surface and kinetic analysis of it can be performed in real time. The measurement was performed according generally to the operating manual attached to Octet RED96. As a human TfR, a recombinant human TfR (r human TfR: Sino Biological Inc.) was used, which had the amino acid sequence of the hTfR extracellular region, i.e., the cysteine residue at the position 89th from the N-terminal side to the phenylalanine at the C-terminus, of the amino acid sequence set forth as SEQ ID NO:1, with a histidine tag attached to the N-terminus. As a monkey TfR, a recombinant monkey TfR (r monkey TfR: Sino Biological Inc.) was used, which had the amino acid sequence of the cynomolgus monkey TfR extracellular region, i.e., the cysteine residue at the position 89th from the N-terminal side to the phenylalanine at the C-terminus, of the amino acid sequence set forth as SEQ ID NO:2, with a histidine tag attached to the N-terminus.
(§2) Each of the antibodies (anti-hTfR antibody Nos. 1 to 14) purified above was subjected to 2-fold dilution steps with HBS-P+(10 mM HEPES containing 150 mM NaCl, 50 μM EDTA and 0.05% Surfactant P20) to prepare antibody solutions of 7 different concentrations, 0.78125 to 50 nM (0.117 to 7.5 μg/mL). These antibody solutions were used as the sample solutions. The r human and r monkey TfRs were respectively diluted with HBS-P+ to prepare 25 μg/mL solutions, which were used as r human TfR-ECD (Histag) solution and r monkey TfR-ECD (Histag) solution, respectively.
(§3) Each of the sample solutions prepared above by 2-fold dilution steps was added, 200 μL/well, to a 96-well plate, black (Greiner Bio-One Inc.). Each of the r human TfR-ECD (Histag) solution and the r monkey TfR-ECD (Histag) solutions prepared above was added, 200 μL/well, to predetermined wells. To respective wells for baseline, dissociation and washing were added HBS-P+, 200 μL/well. To wells for regeneration were added 10 mM Glycine-HCl, pH 1.7, 200 μL/well. To wells for activation was added 0.5 mM NiCl₂ solution, 200 μL/well. The plate and biosensor (Biosensor/Ni-NTA: ForteBio Inc., a division of Pall Corporation) were set in the prescribed positions of Octet RED96.
(Biolayer interferometry detects binding as a change in optical thickness at a sensor tip.)

Experiment [2] has as its target T2, recombinant monkey TfR (r monkey TfR: Sino Biological Inc.) (cynomolgus monkey (Macaca fascicularis), UniProt Q5RDH6 89-760 (Pongo abelii entry)).
T2 construct: Bought product; also called r monkey TfR-ECD (Histag); cynomolgus monkey TfR; not shown: histidine tag attached to the N-terminus
T2 chain: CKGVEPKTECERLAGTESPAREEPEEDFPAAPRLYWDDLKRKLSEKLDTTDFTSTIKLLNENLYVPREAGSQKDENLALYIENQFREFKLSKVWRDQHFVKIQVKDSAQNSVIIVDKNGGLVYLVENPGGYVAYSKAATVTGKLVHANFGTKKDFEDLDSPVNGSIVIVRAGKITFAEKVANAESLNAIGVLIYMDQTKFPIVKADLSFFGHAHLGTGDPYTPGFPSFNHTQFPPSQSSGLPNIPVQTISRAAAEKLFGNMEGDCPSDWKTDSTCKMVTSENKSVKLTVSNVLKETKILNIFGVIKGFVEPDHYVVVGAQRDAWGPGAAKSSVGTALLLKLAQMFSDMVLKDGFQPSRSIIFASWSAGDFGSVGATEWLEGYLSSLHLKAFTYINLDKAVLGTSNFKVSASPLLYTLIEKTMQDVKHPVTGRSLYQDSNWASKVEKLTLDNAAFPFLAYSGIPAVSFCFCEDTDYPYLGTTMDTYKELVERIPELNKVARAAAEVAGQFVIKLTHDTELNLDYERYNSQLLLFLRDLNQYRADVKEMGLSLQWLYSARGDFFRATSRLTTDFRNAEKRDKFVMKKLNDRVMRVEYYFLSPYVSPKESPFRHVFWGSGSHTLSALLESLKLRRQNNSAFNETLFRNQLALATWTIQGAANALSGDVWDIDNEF
The description is as above. As for the experimental part:
as §1, §2, §3

A value given as a limit tells only on which side of the number the result lay.

Results on eleven molecules are retold here after patent US20240262926A1 (published 2024).

By Kd is commonly meant a measure of binding affinity in units of concentration. By koff is commonly meant the first-order rate constant of dissociation. Usually kon stands for the rate constant with which the complex forms.

B1: anti-hTfR antibody No. 6 (antibody, V domains shown)
VH: EVQLQESGPGLVAPSQSLSITCSVSGFSLSTYGVYWVRQPPGKGLEWLGIIWGDGSTNYHSALISRLTISKDNSKSQVFLKLNSLQTADTATYYCAKPDDVWGAGTTVTVSS
VL: DIVLTQTPSSLSASLGERVSLTCRASQEISGYLSWLQQKPDGTIKRLIYAASTLDSGVPKRFSGSRSGSDYSLTISSLESEDFADYYCLQYSSYPRTFGGGTKLEIK
notes: Mouse hybridoma antibody purified on Protein G; also called mouse anti-hTfR antibody No. 6; product of Clone 6 line
For the molecule B1, in experiment [1], the Kd was 0.958 nM, the koff stood at 0.000723 s⁻¹ and the kon is 754000 M⁻¹ s⁻¹. Also, in experiment [2], the Kd worked out at 0.123 nM, the koff came out at 0.000236 s⁻¹ and the kon was determined as 495000 M⁻¹ s⁻¹.

B2: anti-hTfR antibody No. 10 (antibody, V domains shown)
VH: EVQLQESGGGLVKPGGSLKLSCEASGITFRNYAMSWVRQTPEKRLEWVATISSYGGYTYYADSVKGRFTVSRDNAGNTLYLQMSSLRSEDTAMYHCARQEVPYPYPMDNWGQGTSVIVSS
VL: DIVMTQTPSSLSASLGERVSLTCRPSQEISGYLSWLQQKPDGTIKRLIYAASTLDSGVPKRFSGSRSGSDYSLTISSLESEDFADYYCLQYASYPRTFGGGTKLEIK
notes: Mouse hybridoma antibody purified on Protein G; also called mouse anti-hTfR antibody No. 10; product of Clone 10 line
As for B2, in experiment [1], the Kd amounted to 1.13 nM, the koff worked out at 0.000766 s⁻¹ and the kon stood at 679000 M⁻¹ s⁻¹. In experiment [2], the Kd amounted to 31.6 nM, the koff came to 0.0122 s⁻¹ and the kon is 387000 M⁻¹ s⁻¹.

B3: anti-hTfR antibody No. 4 (antibody, V domains shown)
VH: EVQLQESGAELVRPGTSVRVFCKASGYAFTNYLIEWVKQRPGQGLEWIGLINPGSGGIIYNEKFTDRATLTADKSSSTAYMQLSSLTSDDSAVYFCARSNYYGTTYWHFDVWGAGTTVTVSS
VL: DIVLTQTPAIMSASPGEKVTMTCSASSNVNYMHWYQQKSSTSPKLWIYDTSKLASGVPGRFSGSGSGNSYSLTISSMEAEDVATYYCFQGNGNPYTFGGGTKLEIK
notes: Mouse hybridoma antibody purified on Protein G; also called mouse anti-hTfR antibody No. 4; product of Clone 4 line
Take B3: in experiment [1], the Kd turned out to be 0.12 nM, the koff stood at 0.000229 s⁻¹ and the kon turned out to be 1.91e+06 M⁻¹ s⁻¹. Moreover, in experiment [2], the Kd was 0.161 nM, the koff was 0.000121 s⁻¹ and the kon turned out to be 754000 M⁻¹ s⁻¹.

B4: anti-hTfR antibody No. 11 (antibody, V domains shown)
VH: EVQLQESGAELVRPGSSVKISCKASGYAFSIYWINWLKQRPGQGLEWIGQIYPGNGDTNYNGKFKGKATLTADKSSNTVYMRLSSLTSEDSAVYFCGRWGDDYAMDFWGQGTSVTVSS
VL: DIVLTQSPATLSVTPGDRVSLSCRASQSIRNYLHWYQQKSHESPRLLIKYASQSISGIPSRFSGSGSGTDFTLSINSVETEDFGMYFCQQTNSWPYTFGGGTKLEIK
notes: Mouse hybridoma antibody purified on Protein G; also called mouse anti-hTfR antibody No. 11; product of Clone 11 line
Take B4: in experiment [1], the Kd turned out to be 0.0837 nM, the koff was 2.28e-05 s⁻¹ and the kon is 272000 M⁻¹ s⁻¹. Also, in experiment [2], the dissociation constant (Kd) came to 3.38 nM, the koff came to 0.000421 s⁻¹ and the kon was 124000 M⁻¹ s⁻¹.

B5: anti-hTfR antibody No. 13 (antibody, V domains shown)
VH: EVQLQESGAELVRPGSSVKISCKASGYAFSIYWINWLKQRPGQGLEWIGQIYPGNGDTNYNGKFKGKATLTADKSSNTVYMRLSSLTSEDSAVYFCGRWGDDYAMDFWGQGTSVTVSS
VL: DIVITQTPATLSVTPGDRVSLSCRASQSIRNYLHWYQQKSHESPRLLIKYASQSISGIPSRFSGSGSGTDFTLTINSVETEDFGMYFCQQTNSWPYTFGGGTKLEIK
notes: Mouse hybridoma antibody purified on Protein G; also called mouse anti-hTfR antibody No. 13; product of Clone 13 line
With B5, in experiment [1], the Kd is below 0.001 nM, the koff was below 1e-07 s⁻¹ and the kon amounted to 835000 M⁻¹ s⁻¹. For the same molecule, in experiment [2], the Kd amounted to 0.123 nM, the koff came out at 7.29e-05 s⁻¹ and the kon was determined as 591000 M⁻¹ s⁻¹.

B6: anti-hTfR antibody No. 5 (antibody, V domains shown)
VH: EVQLQESGPELVKPGASVKMSCKASGYTFTNFVIHWVKQRPGQGLEWIGFFNPHKNGAEYNEKFQVKATLTSDKSSTTAYMELNSLTSEDSAVYYCARSFYYYSMDYWGQGTSVTVSS
VL: DIVMTQTPAIMSASPGEKVTMTCSASSSISSIHWYQQKPGTSPKRWIYDTSTLASGVPVRFSGSGSGTSYSLTISSMEAEDAATYYCHQRSSYPTFGGGTKLEIK
notes: Mouse hybridoma antibody purified on Protein G; also called mouse anti-hTfR antibody No. 5; product of Clone 5 line
B6: in experiment [1], the Kd is 0.0364 nM, the koff amounted to 2.44e-05 s⁻¹ and the kon turned out to be 671000 M⁻¹ s⁻¹. Besides, in experiment [2], the Kd worked out at 1.46 nM, the koff was found to be 0.000758 s⁻¹ and the kon turned out to be 519000 M⁻¹ s⁻¹.

B7: anti-hTfR antibody No. 2 (antibody, V domains shown)
VH: EVQLQESGAELVRPGVSVKISCKGSGYTFTDYVMHWVRQSHAKSLEWIGVISTYYGHGSYNQRFKGKATMTVDKSSSTAYLELVRLTSEDSAIYYCVRGGYGSSSLAGNFDVWGAGTTVTVSS
VL: DIVLTQSPATLSVTPGDSVSLSCRASQSISNNLQWYQQKSHESPRLLIKYASQSISGIPSRFSGSGSGTDFTLSINSVETEDFGMYFCQQSNSWPRTFGAGTKLELKR
notes: Mouse hybridoma antibody purified on Protein G; also called mouse anti-hTfR antibody No. 2; product of Clone 2 line
Turning to B7, in experiment [1], the dissociation constant Kd came out at 0.0112 nM, the koff is 1.23e-05 s⁻¹ and the kon turned out to be 1.11e+06 M⁻¹ s⁻¹.

B8: anti-hTfR antibody No. 7 (antibody, V domains shown)
VH: EVQLQESGGALVKPGGSLKVSCEASGITFRNYFMSWVRQTPEKRLEWVATISSAGGYTYYADSVKGRFTISRDNAGNTLYLQMSSLRSEDTAMYFCARQEVPYPYAMDYWGQGTSVIVSS
VL: DIVLTQSPVIMSASLGEEITLTCSASSSVNYIHWYQQKSGTSPKVLIYQTSNLASGVPSRFSGSRSGTFYSLKISSVEAEDAADYYCHQWSSYPWTFGGGTKLEIK
notes: Mouse hybridoma antibody purified on Protein G; also called mouse anti-hTfR antibody No. 7; product of Clone 7 line
On to B8, for which, in experiment [1], the Kd came out at 0.0822 nM, the koff amounted to 3.03e-05 s⁻¹ and the kon is 369000 M⁻¹ s⁻¹. For the same molecule, in experiment [2], the Kd amounted to 0.0171 nM, the koff is 4.54e-06 s⁻¹ and the kon was 266000 M⁻¹ s⁻¹.

B9: anti-hTfR antibody No. 8 (antibody, V domains shown)
VH: EVQLQESGPGLVAPSQSLSITCTVSGFSLTTYGVSWIRQPPGKGLEWLGIIWGDGSTNYRSALISRLSISKDNSKNQVFLKLNSLQTDDTATYYCAKPDDYWGQGTSVTVSS
VL: DIVLTQSPAIMSASLGEEITLTCSASSSVSYMHWYQQKSGTSPKVLIYGTSNLASEVPSRFSGSGSGTFYSLTISSVEAEDAADYYCHQWSSYPWTFGGGTKLEIK
notes: Mouse hybridoma antibody purified on Protein G; also called mouse anti-hTfR antibody No. 8; product of Clone 8 line
Turning to B9, in experiment [1], the Kd was below 0.001 nM, the koff is below 1e-07 s⁻¹ and the kon came to 696000 M⁻¹ s⁻¹. Besides, in experiment [2], the Kd stood at 9.18 nM, the koff was found to be 0.00507 s⁻¹ and the kon came out at 552000 M⁻¹ s⁻¹.

B10: anti-hTfR antibody No. 1 (antibody, V domains shown)
VH: EVQLQESGGGLVQPGGSLKLSCAASGLTFSNYGMSWIRQTPDKRLELVANINTNGGSTYYPDSVKGRFTISRDNAKNTLYLQMNSLKSEDTAIYYCTNNRYDEDYWGQGTSVTVSS
VL: DIVLTQSSKFMSTSVGDRVSITCKASQDVNSAVAWFQQKPGQSPKLLIYWTSTRHTGVPDRFTGSGSGTVYTLTISSVQAEDLALYYCQQHYSTPRTFGGGTKLEIKR
notes: Mouse hybridoma antibody purified on Protein G; also called mouse anti-hTfR antibody No. 1; product of Clone 1 line
B10: in experiment [1], the Kd came to 0.00509 nM, the koff amounted to 2.55e-06 s⁻¹ and the kon stood at 500000 M⁻¹ s⁻¹. Further, in experiment [2], the Kd is below 0.001 nM, the koff is below 1e-07 s⁻¹ and the kon came out at 280000 M⁻¹ s⁻¹.

B11: anti-hTfR antibody No. 9 (antibody, V domains shown)
VH: EVQLQESGPELKKPGETVKISCKASGYTFTNYGVSWVKQAPGKDLKWMGWIYTFTGEATYIDDFRGRFAFSLETSANTAYLQINNLKNEDTATYFCSRRNGAWFEDWGQGTLVTVSA
VL: DIVLTQSPALMSASPGETVTMTCSASSSVSLMFWYQQKPRSSPKPWIYFTSYRASGVPIRFSGSGSGTSFSLTISNLEAEDAATYYCQQWTSDPPTFGSGTKLEIE
notes: Mouse hybridoma antibody purified on Protein G; also called mouse anti-hTfR antibody No. 9; product of Clone 9 line
B11: in experiment [1], the Kd came to 0.121 nM, the koff worked out at 9.46e-05 s⁻¹ and the kon amounted to 782000 M⁻¹ s⁻¹.
